# Molecular target: EZH2 subunit of purified human PRC2 (human) (UniProt Q15910)
# Sequence (Q15910 whole entry): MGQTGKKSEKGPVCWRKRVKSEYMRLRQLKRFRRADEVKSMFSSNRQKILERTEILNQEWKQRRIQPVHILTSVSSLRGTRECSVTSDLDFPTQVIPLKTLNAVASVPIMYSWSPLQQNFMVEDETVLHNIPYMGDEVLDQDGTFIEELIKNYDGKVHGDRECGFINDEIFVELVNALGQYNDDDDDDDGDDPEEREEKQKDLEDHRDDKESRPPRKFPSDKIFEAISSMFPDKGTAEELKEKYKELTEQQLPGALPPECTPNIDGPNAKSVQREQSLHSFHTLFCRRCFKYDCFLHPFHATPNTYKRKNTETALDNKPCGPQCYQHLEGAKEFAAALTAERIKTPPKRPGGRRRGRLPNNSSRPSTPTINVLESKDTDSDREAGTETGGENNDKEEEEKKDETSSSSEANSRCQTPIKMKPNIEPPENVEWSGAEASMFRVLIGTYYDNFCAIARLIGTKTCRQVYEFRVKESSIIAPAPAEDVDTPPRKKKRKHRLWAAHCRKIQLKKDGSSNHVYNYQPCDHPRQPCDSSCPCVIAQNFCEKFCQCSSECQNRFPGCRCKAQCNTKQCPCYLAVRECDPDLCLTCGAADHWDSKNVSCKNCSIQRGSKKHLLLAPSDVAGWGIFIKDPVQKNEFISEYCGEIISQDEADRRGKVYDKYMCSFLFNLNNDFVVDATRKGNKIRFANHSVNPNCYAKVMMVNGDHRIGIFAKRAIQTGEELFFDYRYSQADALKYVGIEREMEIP
substance,measurement,value
H3 peptide (18 to 37) containing K27Ile (from UniProt P84243 19-38),"IC50 of inhibition of PRC2 methyltransferase activity in vitro, peptide titrated",8.9 µM
